Measurements as given in article doi:10.1101/2025.11.15.688632.

Target: pseudo wild-type full-length CREB (unlabelled) (UniProt P16220)
Experiment: SEC-MALS

pseudo wild-type full-length CREB (unlabelled) (from UniProt P16220-2 1-327) (natural protein)
stoichiometry N: 2
